# Laboratory results: PMC8693972 (Molecular Biology of the Cell, 2021)
# B1: fluorescent Qb-SNARE domain (cysteine-tagged synthetic SNARE domain of the Qb-SNARE Vti1) (domain or fragment)
# chain: HAILQKSGDRLKDASRIANETEGIGSQIMMDLRSQRETLENARQTLFQADSYVDKSIKTLKTM
# modifications: also: cysteine tag with fluorophore (Alexa-568), tag not in given chain
# Target: T1, fluorescently labeled Qc-SNARE Vam7 (yeast, UniProt P32912 1-316, labeled with a fluorophore distinct from that of Qb)
# T1 sequence: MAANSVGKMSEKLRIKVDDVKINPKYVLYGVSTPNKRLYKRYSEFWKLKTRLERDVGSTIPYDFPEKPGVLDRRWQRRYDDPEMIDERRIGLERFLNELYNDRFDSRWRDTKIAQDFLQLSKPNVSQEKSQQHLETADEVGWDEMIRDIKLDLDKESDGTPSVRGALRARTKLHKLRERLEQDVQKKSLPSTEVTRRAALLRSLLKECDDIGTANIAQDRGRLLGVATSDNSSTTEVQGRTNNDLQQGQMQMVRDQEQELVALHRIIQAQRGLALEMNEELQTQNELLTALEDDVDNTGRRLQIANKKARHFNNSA
# Experiment: FRET or BRET
binder,measurement,value
B1,fold faster FRET with sQa than without sQa,100 fold
